The values that follow come from PMC8647860 (Nature, 2021).

Experiment [1] concerns the target Glycine receptor β subunit (native heteromeric GlyR, 4α:1β) (Sus scrofa, UniProt A0A4X1TUM3+Q6KBX4). The experiment is described as follows: cryo-EM structure. It is filed as binding.
The target in experiment [2] is recombinant pig GlyR α1 subunit without fluorophore (pig). The experiment is described as follows: cryo-EM structure.
The target of experiment [3] is T1, recombinant pig GlyR α1 subunit without fluorophore (pig).
T1 chain: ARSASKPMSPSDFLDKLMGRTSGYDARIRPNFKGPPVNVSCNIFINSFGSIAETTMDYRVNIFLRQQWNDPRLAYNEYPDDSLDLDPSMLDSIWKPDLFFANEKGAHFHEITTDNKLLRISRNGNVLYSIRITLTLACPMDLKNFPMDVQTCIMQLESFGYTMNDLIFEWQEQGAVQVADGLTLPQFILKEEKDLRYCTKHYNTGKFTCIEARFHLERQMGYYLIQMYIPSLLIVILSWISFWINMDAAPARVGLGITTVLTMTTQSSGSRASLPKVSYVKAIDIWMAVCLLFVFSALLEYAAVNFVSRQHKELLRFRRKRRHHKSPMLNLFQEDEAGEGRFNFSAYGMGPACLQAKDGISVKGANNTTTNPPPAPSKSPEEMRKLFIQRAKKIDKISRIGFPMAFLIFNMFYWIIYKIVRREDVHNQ
The experiment is described as follows: cryo-EM structure.

In experiment [4] the target is T2, recombinant pig GlyR α1 subunit tagged with YFP (pig).
T2 chain: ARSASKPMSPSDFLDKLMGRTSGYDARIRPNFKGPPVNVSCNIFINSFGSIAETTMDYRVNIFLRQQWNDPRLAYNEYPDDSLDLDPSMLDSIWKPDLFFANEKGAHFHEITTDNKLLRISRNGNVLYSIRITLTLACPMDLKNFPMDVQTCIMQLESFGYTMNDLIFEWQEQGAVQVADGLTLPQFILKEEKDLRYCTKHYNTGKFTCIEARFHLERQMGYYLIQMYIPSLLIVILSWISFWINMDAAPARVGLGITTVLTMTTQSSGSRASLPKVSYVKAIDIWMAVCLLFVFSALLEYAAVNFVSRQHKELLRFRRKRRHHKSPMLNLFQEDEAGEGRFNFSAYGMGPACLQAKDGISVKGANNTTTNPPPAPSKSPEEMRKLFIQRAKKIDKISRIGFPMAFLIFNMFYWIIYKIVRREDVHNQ
Put plainly: SEC.

Regarding `NCC(=O)O` [glycine], in experiment [1], the “cryo-EM structure (2.7 Å)” value is “formed between the hydroxyl moiety of βY231 and the carboxyl group of glycine”.

As to “recombinant pig GlyR β subunit without fluorophore (receptor)”, the stoichiometry N (α subunits per β subunit) in experiment [2] amounted to 4.

B1: anti-GlyR α 3D1 Fab (Fab, V domains shown)
VH: QVQLQQSGAELMKPGAAVKISCKATGHTISRYWIDWLKQRPGHGLEWIGEILPGSGSTNYNEKFKGKATFTAEKSSNTAYMQLSSLTSEDSAVYYCAMGVRGNYFDYWGQGTTLTVSS
VL: DIVMTQSHKFMSTSVGDRVSITCKASQDVSTAVAWYQQKPGQSPKLLIYWASTRHTGVPGRFTGSGSGTDYTLTISSVQAEDLSLYYCQQHYSTPRTFGGGTKLEIK
As for B1, the binding result in experiment [3] and in experiment [4] was “binds” each time.
